Assay results: paper doi:10.1101/2023.10.23.563616

What was measured:
[1] = target: N-terminally His-tagged TclI (M. caseolyticus); experiment: SEC; purified TclIJN complex (TclI, TclJ and TclN as a mixture); Yarra 1.8 μm X150 column, 100 mM sodium phosphate pH 6.8, 0.023% NaN3, 25 °C, 1 μg/μL
[2] = target: His-tagged TclI N-terminal domain (residues 1-85) (M. caseolyticus)
[3] = target: a tagged version of TclJ or TclN; experiment: pull-down; nickel copurification: TclI, TclJ and TclN all co-expressed in E. coli, one of them His6-tagged; lysate on Ni-NTA agarose beads, 4°C, 50 mM HEPES pH 7.8, 300 mM NaCl, 60 mM imidazole; SDS-PAGE with Coomassie stain

Substance: TclJ (untagged) (enzyme)
- stoichiometry N (TclI per TclJ) [1]: 2

Substance: GST-TclE Δ18 leader truncation (peptide)
- percentage of TclE peptides fully modified (six thiazoles) by LC-MS after co-expression of GST-TclE Δ18 with TclI, TclJ and TclN in E. coli [2]: 71.6%

Substance: TclI (untagged) (natural protein)
- stoichiometry N (TclI per tagged enzyme (densitometry)) [3]: 2 to 8

Substance: TclN (untagged) (enzyme)
- stoichiometry N (TclI per TclN) [1]: 2
